# B1: Sirt1-214-747 (domain or fragment)
# chain: ELDDMTLWQIVINILSEPPKRKKRKDINTIEDAVKLLQECKKIIVLTGAGVSVSCGIPDFRSRDGIYARLAVDFPDLPDPQAMFDIEYFRKDPRPFFKFAKEIYPGQFQPSLCHKFIALSDKEGKLLRNYTQNIDTLEQVAGIQRIIQCHGSFATASCLICKYKVDCEAVRGDIFNQVVPRCPRCPADEPLAIMKPEIVFFGENLPEQFHRAMKYDKDEVDLLIVIGSSLKVRPVALIPSSIPHEVPQILINREPLPHLHFDVELLGDCDVIINELCHRLGGEYAKLCCNPVKLSEITEKPPRTQKELAYLSELPPTPLHVSEDSSSPERTSPPDSSVIVTLLDQAAKSNDDLDVSESKGCMEEKPQEVQTSRNVESIAEQMENPDLKNVGSSTGEKNERTSVAGTVRKCWPNRVAKEQISRRLDGNQYLFLPPNRYIFHGAEVYSDSEDDVLSSSSCGSNSDSGTCQSPSLEEPMEDESEIEEFYNGLEDEPDVPERAGGAGFGTDGDDQEAINEAISVKQEVTDMNYPSNKS
# B2: Sirt1-214-664 (domain or fragment)
# chain: ELDDMTLWQIVINILSEPPKRKKRKDINTIEDAVKLLQECKKIIVLTGAGVSVSCGIPDFRSRDGIYARLAVDFPDLPDPQAMFDIEYFRKDPRPFFKFAKEIYPGQFQPSLCHKFIALSDKEGKLLRNYTQNIDTLEQVAGIQRIIQCHGSFATASCLICKYKVDCEAVRGDIFNQVVPRCPRCPADEPLAIMKPEIVFFGENLPEQFHRAMKYDKDEVDLLIVIGSSLKVRPVALIPSSIPHEVPQILINREPLPHLHFDVELLGDCDVIINELCHRLGGEYAKLCCNPVKLSEITEKPPRTQKELAYLSELPPTPLHVSEDSSSPERTSPPDSSVIVTLLDQAAKSNDDLDVSESKGCMEEKPQEVQTSRNVESIAEQMENPDLKNVGSSTGEKNERTSVAGTVRKCWPNRVAKEQISRRLDGNQYLFLPPNRYIFHGAEVYSDSEDD
# Molecular target: the molecule itself
# Assay: AUC
row,Protein,binding result
1,B1,binds
2,B2,binds

# Source: publication PMC3654483 (Bioscience Reports, 2013)
